Test results from patent publication US20240132578A1.
Changes are numbered by the printed parent chain. Values joined by “and” are separate entries in the source; they are usually repeats but may differ in a detail not shown here. Equal values may be shown once.

B1: PGT-125 (B cell culture well 5123_A6) (antibody, V domains shown)
VH: QSQLQESGPRLVEASETLSLTCNVSGESTGACTYFWGWVRQAPGKGLEWIGSLSHCQSFWGSGWTFHNPSLKSRLTISLDTPKNQVFLKLTSLTAADTATYYCARFDGEVLVYNHWPKPAWVDLWGRGIPVTVSS
VL: QSALTQPPSASGSPGQSITISCNGTATNFVSWYQQFPDKAPKLIIFGVDKRPPGVPDRFSGSRSGTTASLTVSRLQTDDEAVYYCGSLVGNWDVIFGGGTTLTVL
B2: PGT-130 (B cell culture well 5147_N6) (antibody, V domains shown)
VH: QVQLQESGPGLVKPAETLSLTCSVSGESINTGHYYWGWVRQVPGKGLEWIGHIHYTTAVLHNPSLKSRLTIKIYTLRNQITLRLSNVTAADTAVYHCVRSGGDILYYYEWQKPHWFSPWGPGIHVTVSS
VL: QSALTQPPSASGSLGQSVTISCNGTSSDIGGWNFVSWYQQFPGRAPRLIIFEVNKRPSGVPGRFSGSKSGNSASLTVSGLQSDDEGQYFCSSLFGRWDVVFGGGTKLTVL
B3: PGT-137 (antibody, V domains shown)
VH: EVHLEESGPGLVRPSETLSLTCTASGGSIRGGEWGDSDYHWGWVRHSPEKGLEWIGSIHWRGTTHYNAPFRGRGRLSIDLSRNQFSLRLTSVTAEDTAVYYCVKHKYHDIVMVVPIAGWFDPWGQGLQVTVSS
VL: EIMMTQSPAILSVSPGDRATLSCRASQSVKNNLAWYQKRPGQAPRLLIFDTSSRASGIPARFSGGGSGTEFTLTVNSMQSEDFATYYCQQYEEWPRTFGQGTKVEIK
B4: PGT-131 (B cell culture well 5136_H1) (antibody, V domains shown)
VH: QVQLQESGPGLVKPSETLSLTCTVSGDSINTGHHYWGWVRQVPGKGPEWIAHIHYNTAVLHNPALKSRVTISIFTLKNLITLSLSNVTAADTAVYFCVRSGGDILYYIEWQKPHWFYPWGPGILVTVSS
VL: QSALTQPPSASGSLGQSLTISCSGTGSDIGSWNFVSWYQQFPGRAPNLIIFEVNRRRSGVPDRFSGSKSGNTASLTVSGLRSEDEAEYFCSSLSGRWDIVFGGGTKVTVL
B5: PGT-131 (antibody, V domains shown)
VH: B4 VH
VL: B4 VL
B6: PGT-136 (antibody, V domains shown)
VH: QLQLQESGPGLVKPSETLSLTCTVSGGSMRGTDWGENDFHYGWIRQSSAKGLEWIGSIHWRGRTTHYKTSFRSRATLSIDTSNNRFSLTFSFVTAADTAVYYCARHKYHDIFRVVPVAGWFDPWGQGLLVTVSS
VL: EIVMTQSPPTLSVSPGETATLSCRASQNVKNNLAWYQLKPGQAPRLLIFDASSRAGGIPDRFSGSGYGTDFTLTVNSVQSEDFGDYFCQQYEEWPRTFGQGTKVDIK
B7: PGT-135 (B cell culture wells 5343_B8 and 5344_E16) (antibody, V domains shown)
VH: QLQMQESGPGLVKPSETLSLSCTVSGDSIRGGEWGDKDYHWGWVRHSAGKGLEWIGSIHWRGTTHYKESLRRRVSMSIDTSRNWFSLRLASVTAADTAVYFCARHRHHDVFMLVPIAGWFDVWGPGVQVTVSS
VL: EIVMTQSPDTLSVSPGETVTLSCRASQNINKNLAWYQYKPGQSPRLVIFETYSKIAAFPARFVASGSGTEFTLTINNMQSEDVAVYYCQQYEEWPRTFGQGTKVDIK
B8: PGT-126 (B cell culture well 5141_B17) (antibody, V domains shown)
VH: QPQLQESGPGLVEASETLSLTCTVSGDSTAACDYFWGWVRQPPGKGLEWIGGLSHCAGYYNTGWTYHNPSLKSRLTISLDTPKNQVFLKLNSVTAADTAIYYCARFDGEVLVYHDWPKPAWVDLWGRGTLVTVSS
VL: QSALTQPPSASGSPGQSISISCTGTSNRFVSWYQQHPGKAPKLVIYGVNKRPSGVPDRFSGSKSGNTASLTVSGLQTDDEAVYYCSSLVGNWDVIFGGGTKLTVL
B9: PGT-128 (B cell culture well 5114_A19) (antibody, V domains shown)
VH: QPQLQESGPTLVEASETLSLTCAVSGDSTAACNSFWGWVRQPPGKGLEWVGSLSHCASYWNRGWTYHNPSLKSRLTLALDTPKNLVFLKLNSVTAADTATYYCARFGGEVLRYTDWPKPAWVDLWGRGTLVTVSS
VL: B8 VL with S19T, R28N, P37A, G47D, S86G
B10: PGT-127 (B cell culture well 5145_B14) (antibody, V domains shown)
VH: QPQLQESGPGLVEASETLSLTCTVSGDSTGRCNYFWGWVRQPPGKGLEWIGSLSHCRSYYNTDWTYHNPSLKSRLTISLDTPKNQVFLRLTSVTAADTATYYCARFGGEVLVYRDWPKPAWVDLWGRGTLVVTVS
VL: B8 VL with S19T, R28N, H36Y, G47E, N66S, T77A, A81G

Experiments:
Assay in all cases: cell-based or functional assay
[1] = target: HIV-1 Env of pseudovirus 92TH021 (HIV-1)
[2] = target: HIV-1 Env of pseudovirus JRCSF (HIV-1) (UniProt P20871)
[3] = target: HIV-1 Env of pseudovirus MGRM-C-26 (HIV-1)
[4] = target: HIV-1 Env of isolate MGRM-G-024 (subtype G), on pseudovirus (HIV-1)
[5] = target: HIV-1 Env of isolate MGRM-G-027 (subtype G), on pseudovirus (HIV-1)
[6] = target: HIV-1 Env of isolate MGRM-G-006 (subtype G), on pseudovirus (HIV-1)
[7] = target: HIV-1 Env of isolate MGRM-G-015 (subtype G), on pseudovirus (HIV-1)
[8] = target: HIV-1 Env of isolate MGRM-G-001 (subtype G), on pseudovirus (HIV-1)
[9] = target: HIV-1 Env of isolate MGRM-G-019 (subtype G), on pseudovirus (HIV-1)
[10] = target: HIV-1 Env of isolate MGRM-G-016 (subtype G), on pseudovirus (HIV-1)
[11] = target: HIV-1 Env of isolate MGRM-G-017 (subtype G), on pseudovirus (HIV-1)
[12] = target: HIV-1 Env of isolate APV 13 (subtype B) (HIV-1)
[13] = target: HIV-1 Env of isolate APV 6 (subtype B) (HIV-1)
[14] = target: HIV-1 Env of isolate MGRM-G-004 (subtype G), on pseudovirus (HIV-1)
[15] = target: HIV-1 Env of isolate 92BR020 (subtype B) (HIV-1)
[16] = target: aMLV envelope, on pseudovirus (negative control)
[17] = target: HIV-1 Env of isolate MGRM-G-013 (subtype G), on pseudovirus (HIV-1)
[18] = target: HIV-1 Env of isolate MGRM-G-009 (subtype G), on pseudovirus (HIV-1)
[19] = target: HIV-1 Env of isolate MGRM-G-025 (subtype G), on pseudovirus (HIV-1)
[20] = target: HIV-1 Env of isolate APV_17 (subtype B) (HIV-1)
[21] = target: HIV-1 Env of isolate MGRM-G-014 (subtype G), on pseudovirus (HIV-1)
[22] = target: HIV-1 Env of isolate MGRM-G-011 (subtype G), on pseudovirus (HIV-1)
[23] = target: HIV-1 Env of isolate 93TH305 (subtype B) (HIV-1)
[24] = target: HIV-1 Env of isolate 6535.3 (subtype B) (HIV-1)
[25] = target: HIV-1 Env of isolate MGRM-G-028 (subtype G), on pseudovirus (HIV-1)

Row | Binder | Polyclonal Transfectant Neutralization Index [1] | Primary Neutralization Index (B cell culture supernatant) [1] | Polyclonal Transfectant Neutralization Index [2] | Primary Neutralization Index (B cell culture supernatant) [2] | Polyclonal Transfectant Neutralization Index [3] | Primary Neutralization Index (B cell culture supernatant) [3] | IC50 (µg/mL), neutralization of pseudovirus [4] | IC50 (µg/mL), neutralization of pseudovirus [5] | IC50 (µg/mL), neutralization of pseudovirus [6] | IC50 (µg/mL), neutralization of pseudovirus [7] | IC50 (µg/mL), neutralization of pseudovirus [8] | IC50 (µg/mL), neutralization of pseudovirus [9] | IC50 (µg/mL), neutralization of pseudovirus [10] | IC50 (µg/mL), neutralization of pseudovirus [11] | IC50 (µg/mL), pseudovirus neutralization [12] | IC50 (µg/mL), pseudovirus neutralization [13] | IC50 (µg/mL), neutralization of pseudovirus [14] | IC50 (µg/mL), pseudovirus neutralization [15] | IC50 (µg/mL), neutralization of pseudovirus [16] | IC50 (µg/mL), neutralization of pseudovirus [17] | other results
1 | B1 | 50.6 | 133 | 119 | 1730 | 88.3 | 512 |  |  |  |  |  |  |  |  |  |  |  |  |  |  | 
2 | B2 | 4.2 | 538 | 1.24 | 19.3 | 1.05 | 3 |  |  |  |  |  |  |  |  |  |  |  |  |  |  | 
3 | B3 |  |  |  |  |  |  | 0.051 µg/mL | 0.228 µg/mL | > 50 µg/mL | > 50 µg/mL | 41.7 µg/mL | 0.126 µg/mL | > 50 µg/mL | 34.9 µg/mL | > 50 µg/mL | > 50 µg/mL | > 50 µg/mL | 7.81 µg/mL | > 50 µg/mL | > 50 µg/mL | IC50 (µg/mL), neutralization of pseudovirus [18]: > 50 µg/mL; IC50 (µg/mL), neutralization of pseudovirus [19]: > 50 µg/mL; IC50 (µg/mL), pseudovirus neutralization [20]: > 50 µg/mL; IC50 (µg/mL), neutralization of pseudovirus [21]: > 50 µg/mL; IC50 (µg/mL), neutralization of pseudovirus [22]: > 50 µg/mL; IC50 (µg/mL), pseudovirus neutralization [23]: > 50 µg/mL; IC50 (µg/mL), pseudovirus neutralization [24]: > 50 µg/mL; IC50 (µg/mL), neutralization of pseudovirus [25]: > 50 µg/mL
4 | B4 |  | 354 |  | 6.2 |  | 1.2 |  |  |  |  |  |  |  |  |  |  |  |  |  |  | 
5 | B5 |  |  |  |  |  |  | 10.7 µg/mL | 2.9 µg/mL | > 50 µg/mL | > 50 µg/mL | 0.404 µg/mL | > 50 µg/mL | > 50 µg/mL | > 50 µg/mL | 0.189 µg/mL | > 50 µg/mL | > 50 µg/mL | 6.16 µg/mL | > 50 µg/mL | > 50 µg/mL | IC50 (µg/mL), neutralization of pseudovirus [18]: > 50 µg/mL; IC50 (µg/mL), neutralization of pseudovirus [19]: 7.75 µg/mL; IC50 (µg/mL), pseudovirus neutralization [20]: > 50 µg/mL; IC50 (µg/mL), neutralization of pseudovirus [21]: 4.31 µg/mL; IC50 (µg/mL), neutralization of pseudovirus [22]: > 50 µg/mL; IC50 (µg/mL), pseudovirus neutralization [23]: 0.016 µg/mL; IC50 (µg/mL), pseudovirus neutralization [24]: 0.056 µg/mL; IC50 (µg/mL), neutralization of pseudovirus [25]: 0.466 µg/mL
6 | B6 |  |  |  |  |  |  | 0.152 µg/mL | 45.2 µg/mL | > 50 µg/mL | > 50 µg/mL | 8.11 µg/mL | 44.3 µg/mL | > 50 µg/mL | > 50 µg/mL | > 50 µg/mL | > 50 µg/mL | > 50 µg/mL | 8.61 µg/mL | > 50 µg/mL | > 50 µg/mL | IC50 (µg/mL), neutralization of pseudovirus [18]: > 50 µg/mL; IC50 (µg/mL), neutralization of pseudovirus [19]: > 50 µg/mL; IC50 (µg/mL), pseudovirus neutralization [20]: > 50 µg/mL; IC50 (µg/mL), neutralization of pseudovirus [21]: > 50 µg/mL; IC50 (µg/mL), neutralization of pseudovirus [22]: > 50 µg/mL; IC50 (µg/mL), pseudovirus neutralization [23]: 20.2 µg/mL; IC50 (µg/mL), pseudovirus neutralization [24]: > 50 µg/mL; IC50 (µg/mL), neutralization of pseudovirus [25]: > 50 µg/mL
7 | B7 |  |  |  | 1.8 and 1.5 |  | 6.5 and 3.6 |  |  |  |  |  |  |  |  |  |  |  |  |  |  | 
8 | B8 | 2.74 | 2.3 | 102 | 1410 | 102 | 654 |  |  |  |  |  |  |  |  |  |  |  |  |  |  | 
9 | B9 | 10 | 6.6 | 136 | 77.5 | 32.2 | 17.1 |  |  |  |  |  |  |  |  |  |  |  |  |  |  | 
10 | B10 | 0.94 | 1 | 1.61 | 31.1 | 2.62 | 86.9 |  |  |  |  |  |  |  |  |  |  |  |  |  |  | 
